Target: T1, S. cerevisiae Rad51 (S. cerevisiae), P25454
T1 chain: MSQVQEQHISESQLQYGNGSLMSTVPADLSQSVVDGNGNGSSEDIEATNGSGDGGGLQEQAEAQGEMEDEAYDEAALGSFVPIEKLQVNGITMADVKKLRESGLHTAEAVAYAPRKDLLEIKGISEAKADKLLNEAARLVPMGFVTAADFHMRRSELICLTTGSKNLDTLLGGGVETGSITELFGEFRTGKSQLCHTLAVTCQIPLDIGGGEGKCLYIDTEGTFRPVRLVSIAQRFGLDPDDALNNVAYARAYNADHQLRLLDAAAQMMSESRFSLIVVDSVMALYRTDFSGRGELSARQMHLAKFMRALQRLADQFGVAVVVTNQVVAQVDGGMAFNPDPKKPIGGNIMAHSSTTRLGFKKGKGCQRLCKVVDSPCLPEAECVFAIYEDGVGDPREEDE
Assay: mass photometry; TwoMP instrument; protein diluted to about 8-10 nM decamers in the well; 50 mM Tris-acetate pH 7.5, 50 mM KCl, 5 mM MgCl2
Conditions: remark: other sources report otherwise

B1: S. cerevisiae Rad51, P25454 1-400 (natural protein)
chain: T1 chain
stoichiometry N: 15

— article PMC10556141
